Reference: patent US20110300138A1 (published 2011)

Key:
TSHR260-AP (human) [1] = assay: TSHR260-AP bridge ELISA (full length TSHR on wells, TSHR260-AP in solution); IgG 1 µg/mL diluted in HBD serum
TSHR260-AP (human) [2] = assay: TSHR260-AP bridge ELISA (full length TSHR on wells, TSHR260-AP in solution); IgG 250 µg/mL diluted in assay buffer
[3] = biological target: TSHR260-alkaline phosphatase (TSHR260-AP) (human) (UniProt P05187); assay: TSHR260-AP bridge ELISA, full length TSHR on wells; 0.5 µg/mL, diluted in assay buffer
TSHR260-AP (human) [4] = assay: TSHR260-AP bridge ELISA (full length TSHR on wells, TSHR260-AP in solution); IgG 0.1 µg/mL diluted in HBD serum
[5] = biological target: TSHR260-alkaline phosphatase (TSHR260-AP) (human) (UniProt P05187); assay: TSHR260-AP bridge ELISA, full length TSHR on wells; 1 µg/mL, diluted in assay buffer
[6] = biological target: TSHR260-alkaline phosphatase (TSHR260-AP) (human) (UniProt P05187); assay: TSHR260-AP bridge ELISA, full length TSHR on wells; 250 µg/mL, diluted in assay buffer
[7] = biological target: TSHR260-alkaline phosphatase (TSHR260-AP) (human) (UniProt P05187); assay: TSHR260-AP bridge ELISA, full length TSHR on wells; 250 µg/mL, diluted in HBD
TSHR260-AP (human) [8] = assay: TSHR260-AP bridge ELISA (full length TSHR on wells, TSHR260-AP in solution); IgG 10 µg/mL diluted in HBD serum
[9] = biological target: TSHR260-alkaline phosphatase (TSHR260-AP) (human) (UniProt P05187); assay: TSHR260-AP bridge ELISA, full length TSHR on wells; 0.1 µg/mL, diluted in assay buffer
[10] = biological target: human TSHR expressed in CHO cells (human) (UniProt P16473); assay: cell-based or functional assay
[11] = biological target: human TSHR (thyroid stimulating hormone receptor) expressed in transfected CHO cells (human) (UniProt P16473); assay: cell-based or functional assay
[12] = biological target: human TSH receptor (TSHR), wild type, expressed in CHO cells (human) (UniProt P16473); assay: cell-based or functional assay
[13] = biological target: human TSHR (wild type, full length) expressed in CHO cells (human) (UniProt P16473); assay: cell-based or functional assay
[14] = biological target: human TSH receptor (wild type), expressed on transfected CHO cells (human) (UniProt P16473); assay: cell-based or functional assay

B1: 5C9 IgG (antibody, from another filing, V domains shown)
VH: EVQLVESGGGLIQPGGSLRLSCAASGFTVSSNYMSWVRQAPGKGLEWVSVTYSGGSTSYADSVKGRFTISRDNSKNTLYLQMNSLRAEDTAVYYCARGGRYCSSISCYARSGCDYWGQGTLVTVSS
VL: AIQMTQSPSSLSASVGDRVTITCRASQSISNYLNWYQQKPGKAPKLLIYAASSLQSGVPSRFSGSGSGTDFTLTISSLQPEDFATYYCQQSYSSPSTTFGQGTKLEIK
B1 gave a Mean absorbance at 405 nm (absorbance at 405 nm) (TSHR260-AP (human) [1]) of 0.045, a Mean absorbance at 405 nm (absorbance at 405 nm) (TSHR260-AP (human) [2]) of 1.12 and a Mean absorbance at 405 nm (absorbance at 405 nm) [3] of -0.005. It also gave a Mean absorbance at 405 nm (absorbance at 405 nm) (TSHR260-AP (human) [4]) of -0.005, a Mean absorbance at 405 nm (absorbance at 405 nm) [5] of 0.011 and a Mean absorbance at 405 nm (absorbance at 405 nm) [6] of 1.12. For the same binder, the Mean absorbance at 405 nm (absorbance at 405 nm) [7] was 0.058, the Mean absorbance at 405 nm (absorbance at 405 nm) (TSHR260-AP (human) [8]) was 0.004 and the Mean absorbance at 405 nm (absorbance at 405 nm) [9] was -0.013. The % Inhibition; 5C9 IgG 0.003 µg/mL + 3 ng/mL pTSH [10] was 10.4%, the % Inhibition; 5C9 IgG 0.0075 µg/mL + 3 ng/mL pTSH [10] was 76.5% and the % Inhibition; 5C9 IgG 0.01 µg/mL + 3 ng/mL pTSH [10] was 1%. The % Inhibition; 5C9 IgG 0.025 µg/mL + 3 ng/mL pTSH [10] was 26%, the % Inhibition; 5C9 IgG 0.05 µg/mL + 3 ng/mL pTSH [10] was 62.8% and the % Inhibition; 5C9 IgG 0.1 µg/mL + 3 ng/mL pTSH [10] was 81.8%. The % Inhibition; 5C9 IgG 0.3 µg/mL + 3 ng/mL pTSH [10] was 87.5%, the % Inhibition; 5C9 IgG 1 µg/mL + 3 ng/mL pTSH [10] was 92.3% and the % Inhibition; 5C9 IgG 3 µg/mL + 3 ng/mL pTSH [10] was 92.8%. It also gave a % Inhibition; 3 ng/mL M22 IgG + 0.001 µg/mL 5C9 IgG [11] of 7.7%, a % Inhibition; 3 ng/mL M22 IgG + 0.01 µg/mL 5C9 IgG [11] of 25.2% and a % Inhibition; 3 ng/mL M22 IgG + 0.1 µg/mL 5C9 IgG [11] of 92.8%. It also gave a % Inhibition; 3 ng/mL M22 IgG + 1 µg/mL 5C9 IgG [11] of 97.1%, a % Inhibition; 3 ng/mL M22 IgG + 10 µg/mL 5C9 IgG [11] of 94.4% and a % Inhibition; 3 ng/mL M22 IgG + 100 µg/mL 5C9 IgG [11] of 97.1%. It also gave a Cyclic AMP concentration; 3 ng/mL M22 IgG + 0.001 µg/mL 5C9 IgG [11] of 41 pmol/mL, a Cyclic AMP concentration; 3 ng/mL M22 IgG + 0.01 µg/mL 5C9 IgG [11] of 33.2 pmol/mL and a Cyclic AMP concentration; 3 ng/mL M22 IgG + 0.1 µg/mL 5C9 IgG [11] of 3.2 pmol/mL. It also gave a Cyclic AMP concentration; 3 ng/mL M22 IgG + 1 µg/mL 5C9 IgG [11] of 1.3 pmol/mL, a Cyclic AMP concentration; 3 ng/mL M22 IgG + 10 µg/mL 5C9 IgG [11] of 2.5 pmol/mL and a Cyclic AMP concentration; 3 ng/mL M22 IgG + 100 µg/mL 5C9 IgG [11] of 1.3 pmol/mL. It also gave a Cyclic AMP concentration; 100 µg/mL 5C9 IgG [11] of 1.7 pmol/mL, a % Inhibition of constitutive activity; 0.001 µg/mL 5C9 IgG [12] of 0% and a % Inhibition of constitutive activity; 0.01 µg/mL 5C9 IgG [12] of 1%. It also gave a % Inhibition of constitutive activity; 0.1 µg/mL 5C9 IgG [12] of 13%, a % Inhibition of constitutive activity; 0.3 µg/mL 5C9 IgG [12] of 50% and a % Inhibition of constitutive activity; 1 µg/mL 5C9 IgG [12] of 61%. For the same binder, the % Inhibition of constitutive activity; 3 µg/mL 5C9 IgG [12] was 63%, the % Inhibition of constitutive activity; 10 µg/mL 5C9 IgG [12] was 56% and the % Inhibition of constitutive activity; 100 µg/mL 5C9 IgG [12] was 52%. It also gave a Cyclic AMP concentration (constitutive activity); 0.001 µg/mL 5C9 IgG [12] of 19.1 pmol/mL, a Cyclic AMP concentration (constitutive activity); 0.01 µg/mL 5C9 IgG [12] of 18.6 pmol/mL and a Cyclic AMP concentration (constitutive activity); 0.1 µg/mL 5C9 IgG [12] of 16.3 pmol/mL. The Cyclic AMP concentration (constitutive activity); 0.3 µg/mL 5C9 IgG [12] was 9.3 pmol/mL, the Cyclic AMP concentration (constitutive activity); 1 µg/mL 5C9 IgG [12] was 7.4 pmol/mL and the Cyclic AMP concentration (constitutive activity); 3 µg/mL 5C9 IgG [12] was 6.9 pmol/mL. It also gave a Cyclic AMP concentration (constitutive activity); 10 µg/mL 5C9 IgG [12] of 8.3 pmol/mL, a Cyclic AMP concentration (constitutive activity); 100 µg/mL 5C9 IgG [12] of 9 pmol/mL and a % Inhibition of T5 serum stimulation; 0.01 µg/mL 5C9 IgG [13] of 17.2%. The % Inhibition of T5 serum stimulation; 0.1 µg/mL 5C9 IgG [13] was 91.2%, the % Inhibition of T5 serum stimulation; 1 µg/mL 5C9 IgG [13] was 97.8% and the % Inhibition of T5 serum stimulation; 10 µg/mL 5C9 IgG [13] was 98.9%. It also gave a % Inhibition of T5 serum stimulation; 100 µg/mL 5C9 IgG [13] of 98.9%, a Cyclic AMP concentration; 0.01 µg/mL 5C9 IgG + T5 [13] of 52.9 pmol/mL and a Cyclic AMP concentration; 0.1 µg/mL 5C9 IgG + T5 [13] of 5.6 pmol/mL. The Cyclic AMP concentration; 1 µg/mL 5C9 IgG + T5 [13] was 1.4 pmol/mL, the Cyclic AMP concentration; 10 µg/mL 5C9 IgG + T5 [13] was 0.7 pmol/mL and the Cyclic AMP concentration; 100 µg/mL 5C9 IgG + T5 [13] was 0.7 pmol/mL. It also gave a Cyclic AMP concentration; 100 µg/mL 5C9 IgG alone [13] of 1.1 pmol/mL, a % Inhibition (constitutive activity); 0.1 µg/mL 5C9 IgG [14] of 0% and a % Inhibition (constitutive activity); 0.2 µg/mL 5C9 IgG [14] of 0%.
